In patent US20180327500A1 (SYMPHOGEN A S, published 2018):

Key:
Assay in all cases: flow cytometry on transfected HEK293 cells;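 also: antibodies applied at 50 µg/ml, binding called specific when fluorescence exceeds the mean signal on a negative control chicken or mouse MET construct plus four SD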
LS2 = target: T1, LS2
T1 construct: human/mouse chimera on transfected HEK293 cells
Method: (§1) Cut-off values defined as the average fluorescence signal of all antibodies tested at 50 μg/ml to the negative control chicken or mouse MET construct+four standard deviations were employed to discriminate background binding from specific binding for the domain exchange or blade exchange constructs.
T1 MET ECD-SV5-GPI fusion: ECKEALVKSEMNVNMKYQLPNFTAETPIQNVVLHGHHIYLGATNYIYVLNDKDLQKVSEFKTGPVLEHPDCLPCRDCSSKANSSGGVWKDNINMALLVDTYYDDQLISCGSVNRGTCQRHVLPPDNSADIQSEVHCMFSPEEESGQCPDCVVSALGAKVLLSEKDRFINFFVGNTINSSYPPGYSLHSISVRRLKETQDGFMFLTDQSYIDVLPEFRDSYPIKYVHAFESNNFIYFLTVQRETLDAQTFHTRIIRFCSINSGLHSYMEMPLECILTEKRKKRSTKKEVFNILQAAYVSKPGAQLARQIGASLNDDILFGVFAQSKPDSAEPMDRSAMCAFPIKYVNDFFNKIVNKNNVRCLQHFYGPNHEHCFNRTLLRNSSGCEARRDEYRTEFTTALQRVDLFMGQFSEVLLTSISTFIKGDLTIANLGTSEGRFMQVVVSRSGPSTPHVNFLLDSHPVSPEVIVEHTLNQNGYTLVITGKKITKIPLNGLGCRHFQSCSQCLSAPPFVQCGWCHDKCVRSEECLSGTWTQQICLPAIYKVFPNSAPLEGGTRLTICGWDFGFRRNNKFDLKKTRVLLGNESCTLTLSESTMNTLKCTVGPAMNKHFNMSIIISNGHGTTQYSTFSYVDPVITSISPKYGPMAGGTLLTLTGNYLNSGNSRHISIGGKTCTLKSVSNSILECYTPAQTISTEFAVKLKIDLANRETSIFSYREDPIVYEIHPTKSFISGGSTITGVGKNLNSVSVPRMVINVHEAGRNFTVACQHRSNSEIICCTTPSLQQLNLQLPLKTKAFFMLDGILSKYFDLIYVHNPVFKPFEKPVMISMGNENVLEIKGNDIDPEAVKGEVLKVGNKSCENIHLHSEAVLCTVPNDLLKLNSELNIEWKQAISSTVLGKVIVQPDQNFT

LS5 = target: T2, LS5
T2 construct: human/mouse chimera on transfected HEK293 cells; also called AA 25-473
Method: as §1
T2 MET ECD-SV5-GPI fusion: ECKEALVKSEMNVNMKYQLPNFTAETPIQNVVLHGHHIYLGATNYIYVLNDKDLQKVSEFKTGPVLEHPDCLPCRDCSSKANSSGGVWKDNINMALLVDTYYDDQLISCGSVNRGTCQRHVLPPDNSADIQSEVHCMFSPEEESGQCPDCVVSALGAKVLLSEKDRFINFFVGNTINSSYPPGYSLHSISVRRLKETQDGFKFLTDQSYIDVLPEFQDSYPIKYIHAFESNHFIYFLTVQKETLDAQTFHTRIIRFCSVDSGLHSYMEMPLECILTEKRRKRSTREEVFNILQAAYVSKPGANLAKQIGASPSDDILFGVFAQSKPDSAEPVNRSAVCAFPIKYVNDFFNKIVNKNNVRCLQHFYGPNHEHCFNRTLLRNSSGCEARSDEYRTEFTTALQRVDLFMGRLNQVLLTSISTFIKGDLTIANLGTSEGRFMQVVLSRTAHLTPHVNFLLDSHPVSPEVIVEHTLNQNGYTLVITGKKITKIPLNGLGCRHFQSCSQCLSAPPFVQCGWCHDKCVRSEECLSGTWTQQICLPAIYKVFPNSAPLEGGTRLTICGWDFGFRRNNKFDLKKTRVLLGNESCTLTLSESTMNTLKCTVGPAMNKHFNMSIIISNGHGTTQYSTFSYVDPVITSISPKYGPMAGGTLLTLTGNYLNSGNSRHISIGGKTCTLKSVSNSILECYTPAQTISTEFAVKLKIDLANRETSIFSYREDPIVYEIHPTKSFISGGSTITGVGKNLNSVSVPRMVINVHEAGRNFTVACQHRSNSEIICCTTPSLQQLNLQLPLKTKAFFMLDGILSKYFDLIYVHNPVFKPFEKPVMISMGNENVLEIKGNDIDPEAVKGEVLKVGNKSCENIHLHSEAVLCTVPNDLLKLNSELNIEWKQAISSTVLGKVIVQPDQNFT

Mouse Blade 1-6 = target: T3, Mouse Blade 1-6
T3 construct: human/mouse chimera on transfected HEK293 cells; also called AA 25-479
Method: as §1
T3 MET ECD-SV5-GPI fusion: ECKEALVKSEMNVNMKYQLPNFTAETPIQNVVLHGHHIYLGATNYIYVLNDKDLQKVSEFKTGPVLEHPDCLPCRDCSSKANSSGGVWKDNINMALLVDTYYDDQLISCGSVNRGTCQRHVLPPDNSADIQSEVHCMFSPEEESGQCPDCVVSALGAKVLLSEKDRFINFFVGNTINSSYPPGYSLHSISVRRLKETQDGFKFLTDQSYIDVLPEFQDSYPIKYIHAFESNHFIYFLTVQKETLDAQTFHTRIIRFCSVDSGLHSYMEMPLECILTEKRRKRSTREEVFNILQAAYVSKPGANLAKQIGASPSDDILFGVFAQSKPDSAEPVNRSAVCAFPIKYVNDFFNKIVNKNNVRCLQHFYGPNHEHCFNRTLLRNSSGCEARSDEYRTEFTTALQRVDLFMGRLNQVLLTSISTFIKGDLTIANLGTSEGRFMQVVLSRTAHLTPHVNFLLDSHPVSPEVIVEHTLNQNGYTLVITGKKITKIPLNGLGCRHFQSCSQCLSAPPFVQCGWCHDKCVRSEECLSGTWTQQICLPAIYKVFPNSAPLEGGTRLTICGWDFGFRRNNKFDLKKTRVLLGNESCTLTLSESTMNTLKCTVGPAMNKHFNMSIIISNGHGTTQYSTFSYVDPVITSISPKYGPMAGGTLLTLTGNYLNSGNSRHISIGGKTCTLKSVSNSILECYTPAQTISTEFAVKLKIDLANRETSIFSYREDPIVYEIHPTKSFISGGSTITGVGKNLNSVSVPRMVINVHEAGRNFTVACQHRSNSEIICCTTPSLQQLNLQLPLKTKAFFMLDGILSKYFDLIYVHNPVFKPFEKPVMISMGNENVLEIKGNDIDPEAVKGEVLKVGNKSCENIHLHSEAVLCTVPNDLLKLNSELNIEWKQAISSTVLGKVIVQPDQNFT

LS3 = target: T4, LS3
T4 construct: human/mouse chimera on transfected HEK293 cells; also called AA 25-312
Method: as §1
T4 MET ECD-SV5-GPI fusion: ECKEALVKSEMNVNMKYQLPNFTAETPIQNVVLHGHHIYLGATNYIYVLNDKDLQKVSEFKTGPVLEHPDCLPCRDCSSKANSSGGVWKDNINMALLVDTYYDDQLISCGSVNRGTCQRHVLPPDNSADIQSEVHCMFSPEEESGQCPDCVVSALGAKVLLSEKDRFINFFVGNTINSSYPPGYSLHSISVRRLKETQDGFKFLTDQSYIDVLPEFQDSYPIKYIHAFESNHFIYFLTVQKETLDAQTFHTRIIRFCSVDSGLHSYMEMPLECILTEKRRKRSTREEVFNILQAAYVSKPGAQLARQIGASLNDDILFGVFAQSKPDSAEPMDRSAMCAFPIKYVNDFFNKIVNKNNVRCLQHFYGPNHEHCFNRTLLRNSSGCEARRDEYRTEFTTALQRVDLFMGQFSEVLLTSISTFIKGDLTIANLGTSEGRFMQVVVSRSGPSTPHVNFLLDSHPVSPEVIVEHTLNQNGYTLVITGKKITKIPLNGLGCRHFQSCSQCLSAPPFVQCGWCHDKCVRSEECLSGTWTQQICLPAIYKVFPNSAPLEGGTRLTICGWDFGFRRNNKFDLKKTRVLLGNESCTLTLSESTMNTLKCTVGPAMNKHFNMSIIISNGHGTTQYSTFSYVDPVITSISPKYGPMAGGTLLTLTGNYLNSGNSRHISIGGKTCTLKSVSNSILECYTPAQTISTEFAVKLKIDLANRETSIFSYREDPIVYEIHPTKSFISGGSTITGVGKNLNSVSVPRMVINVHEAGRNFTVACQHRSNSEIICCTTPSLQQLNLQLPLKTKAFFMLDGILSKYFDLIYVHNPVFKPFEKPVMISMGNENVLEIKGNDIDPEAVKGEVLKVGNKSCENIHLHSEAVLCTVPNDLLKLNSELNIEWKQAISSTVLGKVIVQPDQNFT

Measured: binding result

B1: humanized antibody 9338 (antibody, human IgG1, kappa, V domains shown)
VH: QVQLVQSGAEVKKPGSSVKVSCKASGYTFTSYWMHWVRQAPGQGLEWMGYINPSSGHIENNQKFKDRVTITADKSTSTAYMELSSLRSEDTAVYYCARGRFAYWGQGTLVTVSS
VL: EIVLTQSPATLSLSPGERATLSCSASSSVSSGYLYWYQQKPGQAPRLLIYSTSNLASGIPARFSGSGSGTDFTLTISSLEPEDFAVYYCHQWSSYPFTFGSGTKLEIKR
notes: also called Hu9338; hu9338
no binding (tested: 50 µg/ml): all assays above

B2: humanized antibody 9006 (antibody, human IgG1, kappa, V domains shown)
VH: QVQLVQSGSELKKPGASVKVSCKASGYTFTNFRMNWVKQAPGQGLKWMGWINTYTGEPTYVDDLKGRFVFSLDTSVSTAYLQISSLKAEDTAVYYCARKGIARAMDYWGQGTTVTVSS
VL: DIVMTQSPDSLAVSLGERATINCKSSQSLLDSGNQKNYLAWYQQKPGQPPKLLIFGASTRESGVPDRFSGSGSGTDFTLTISSLQAEDVAVYYCQNDHSYPYTFGQGTKLEIKR
notes: also called Hu9006; hu9006
no binding (tested: 50 µg/ml): all assays above
